{"source": "paper PMC10917881", "about": "“Biochemical characterization of L-asparaginase isoforms from Rhizobium etli—the boosting effect of zinc” (Frontiers in Chemistry, 2024)", "proteins": {"B1": {"name": "ReAV (Rhizobium etli CFN 42) (protein)", "chain": "MTPSEDFVVTDRGGIVENSHRVHAAVVDAKGRLLYALGNPTRMTLARSAAKPAQALAILETEGVAGYGFDDADIALMCASHSSEDRHIARTRAMLSKIKAEEADLRCGGHPSLSEMVNRSWIKQDFIPTAVCSNCSGKHVGMLAGARAIGAGTDGYHLPDHPMQGRVKRTVAELCDLDAGDVEWGTDGCNLPTPAFPLDRLGRIYAKLASAADGSDAGEGQSTRCAALAHIFRAMARHPEMVAGEGRYCTMLMRAFDGALVGKLGADASYAIGVRASDATRQLGTDGALGISVKIEDGNLEMLYAVVTELLERLGIGSPDVRSQLASFHHPQRVNTMGVTTGGVSFPFKLRGSKSNVDDPRLAAVAR", "notes": "full length, 367 residues; N-terminal 6xHis tag cut off by TEV (pET151D); E. coli BL21 Gold (DE3); homodimer"}, "B2": {"name": "ReAV (Rhizobium etli CFN 42; K138A) (protein)", "chain": "B1 chain with K138A", "notes": "as for B1"}, "B3": {"name": "ReAIV (Rhizobium etli CFN 42) (protein)", "chain": "MTNPVTVEVTRGLLVESRHRGAVAVVDGDGKLFFSLGDIDTAVFPRSACKAMQALPLVESGAADAYGFGDKELALACASHNGEEEHVALAASMLSRAGRNVEALECGAHWSMNQKVLIQQARSLDAPTALHNNCSGKHAGFICACCHRDIDPKGYVGYEHPLQVEIRAVMERLTGAVLGAESCGTDGCSIPTYAMPLRNLAHGFARMATGTGLEPLRAKASRRLIEACMAEPFYVAGSGRACTKLMQIAPGRIFVKTGAEGVFCAAIPEKGIGISLKSEDGATRAAEAMVAATLARFFETEETVHAALMAFAAMPMRNWNGIHVGDIRATSVFSA", "notes": "full length, 335 residues; N-terminal 6xHis tag cut off by TEV (pET151D); E. coli BL21 Gold (DE3); homodimer"}, "B4": {"name": "ReAIV (Rhizobium etli CFN 42; K137A) (protein)", "chain": "B3 chain with K137A"}}, "key": {"[1]": {"substrate": "NC(=O)C[C@H](N)C(=O)O", "assay": "ITC multiple injection method (heat-rate)", "format": "biochemical, Rhizobium etli", "conditions": "Tris-HCl pH 9.0, 37°C", "from_the_text": "ITC multiple injection method (heat-rate) on ReAV"}, "[2]": {"substrate": "C=CC(N)=O", "assay": "ITC, Michaelis-Menten fit", "format": "biochemical, Rhizobium etli", "conditions": "possible substrate only: heat signal, product not confirmed by Nessler, protein adduct not excluded; fit before product inhibition / inactivation", "from_the_text": "ITC, Michaelis-Menten fit on ReAIV | after acrylamide injection into the reaction cell containing ReAIV, but not ReAV"}, "[3]": {"substrate": "NC(=O)C[C@H](N)C(=O)O", "assay": "ITC multiple injection method (heat-rate)", "format": "biochemical, Rhizobium etli", "conditions": "10 mM Tris-HCl pH 9.0, 37°C, with optimal 1 µM Zn2+ (metal cofactor)", "from_the_text": "ITC multiple injection method (heat-rate) on ReAIV"}, "purified protein": {"substrate": "NC(=O)C[C@H](N)C(=O)O", "assay": "purified protein", "conditions": "10 mM Tris-HCl pH 9.0, 37°C, with optimal Zn2+ (metal cofactor)"}, "[4]": {"conditions": "with optimal 2.5 µM Zn2+ (metal cofactor)"}}, "note": "Residue numbers refer to the chain shown, from its start. Names and notes keep the numbering of the source."}
{"protein": "B1", "values": [{"measurement": "Km", "setting": "[1]; [4]", "value": "2100 ± 200", "unit": "µM"}, {"measurement": "kcat", "setting": "[1]; [4]", "value": "603 ± 24", "unit": "s⁻¹"}, {"measurement": "kcat/Km", "setting": "[1]; [4]", "value": "294000 ± 31000", "unit": "M⁻¹ s⁻¹"}]}
{"protein": "B2", "values": [{"measurement": "Km", "setting": "[1]; with optimal Zn2+ (metal cofactor)", "value": "500 ± 100", "unit": "µM"}]}
{"protein": "B3", "values": [{"measurement": "Km", "setting": "[2]", "value": 5500, "unit": "µM"}, {"measurement": "kcat", "setting": "[2]", "value": 12.6, "unit": "s⁻¹"}, {"measurement": "Km", "setting": "[3]", "value": "1500 ± 100", "unit": "µM"}, {"measurement": "kcat", "setting": "[3]", "value": "770 ± 17", "unit": "s⁻¹"}, {"measurement": "kcat/Km", "setting": "[3]", "value": "526000 ± 34000", "unit": "M⁻¹ s⁻¹"}]}
{"protein": "B4", "values": [{"measurement": "Km", "setting": "purified protein", "value": "2300 ± 100", "unit": "µM"}, {"measurement": "kcat", "setting": "purified protein", "value": 158, "unit": "s⁻¹"}, {"measurement": "kcat/Km", "setting": "purified protein", "value": 70000, "unit": "M⁻¹ s⁻¹"}]}
